In the supplement of paper PMC10201428:
± gives the standard deviation of the averaged measurements.

How the values were obtained:
[1] = system: VchCAST RNA-guided transposition machinery (E. coli BL21(DE3) host, lacZ target); experiment: relative integration efficiency (T-LR orientation) vs wild-type transposon end (log2 (normalized fold change)); transposon end mutated: right end (5 bp flank + 75 bp right end); higher = more efficient transposition
Outline: (§1)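 Barcode abundances in input plasmids and in genomic integration junctions were obtained by PCR amplification and Illumina sequencing. These came from E. coli BL21(DE3) co-transformed with a T7-driven effector plasmid and a pUC57 donor carrying 1549 left-end or 1849 right-end transposon variants, then plated with 0.1 mM IPTG at 37°C for 18 h. Relative integration efficiency is the output/input fold change, normalised to reference barcodes and log-transformed.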

[2] = system: VchCAST RNA-guided transposition machinery (E. coli BL21(DE3) host, lacZ target); experiment: relative integration efficiency (T-RL orientation) vs wild-type transposon end (log2 (normalized fold change)); transposon end mutated: right end (5 bp flank + 75 bp right end); higher = more efficient transposition
Outline: as §1

Sequence	relative integration efficiency (log2) [1]	relative integration efficiency (log2) [2]
ACATTTGTTGATACAACCATAAAATGATAATTACACAAATAAATTGATAATTATCACACCCATAAATTGATATTGCCTCTGATCATAGTCAGACCAACATTGCTACGACCCGTATTCGCACCGACAC	-1.82 ± 0.23	-0.996 ± 0.19
ACATTTGTTGATACAACCATAAAATGATAATTACACAACGAAATTGATAATTATCACACCCATAAATTGATATTGCCTCTGATCATAGTCAGACCAACATTGCTACGACCCGTATTCGCACCGACAC	-3.53 ± 0.42	-3.5 ± 0.2
ACATTTGTTGATACAACCATAAAATGATAATTACACAACGCCCGGTCGCCGGCGACACAAACGCCCGGTCGCGGTAAGAGGATCATAGTCAGACCAACATTGCTACGACCCGTATTCGCACCGACAC	0.604 ± 0.2	-2.42 ± 0.23
ACATTTGTTGATACAACCATAAAATGATAATTACACCACGCAATTGATAATTATCACACCCATAAATTGATATTGCCTCTGATCATAGTCAGACCAACATTGCTACGACCCGTATTCGCACCGACAC	-2.53 ± 0.18	-3.04 ± 0.044
ACATTTGTTGATACAACCATAAAATGATAATTACACCACGCCCGGTCGCCGGCGACACAAACGCCCGGTCGCGGTAAGAGGATCATAGTCAGACCAACATTGCTACGACCCGTATTCGCACCGACAC	0.799 ± 0.081	-2.31 ± 0.082
ACATTTGTTGATACAACCATAAAATGATAATTACACCACTAAATTGATAATTATCACACCCATAAATTGATATTGCCTCTGATCATAGTCAGACCAACATTGCTACGACCCGTATTCGCACCGACAC	-2.09 ± 0.036	-1.78 ± 0.12
ACATTTGTTGATACAACCATAAAATGATAATTACACCCAATAATTGATAATTATCACACCCATAAATTGATATTGCCTCTGATCATAGTCAGACCAACATTGCTACGACCCGTATTCGCACCGACAC	-0.381 ± 0.18	-0.277 ± 0.02
ACATTTGTTGATACAACCATAAAATGATAATTACACCCAATTTTTGATAATTATCACACCCATAAATTGATATTGCCTCTGATCATAGTCAGACCAACATTGCTACGACCCGTATTCGCACCGACAC	-0.688 ± 0.35	-0.529 ± 0.16
ACATTTGTTGATACAACCATAAAATGATAATTACACCCAGCAATTGATAATTATCACACCCATAAATTGATATTGCCTCTGATCATAGTCAGACCAACATTGCTACGACCCGTATTCGCACCGACAC	-2.55 ± 0.22	-2.18 ± 0.085
ACATTTGTTGATACAACCATAAAATGATAATTACACCCAGCCCGGTCGCCGGCGACACAAACGCCCGGTCGCGGTAAGAGGATCATAGTCAGACCAACATTGCTACGACCCGTATTCGCACCGACAC	1.03 ± 0.08	-1.97 ± 0.16
ACATTTGTTGATACAACCATAAAATGATAATTACACCCAGCCCTTGATAATTATCACACCCATAAATTGATATTGCCTCTGATCATAGTCAGACCAACATTGCTACGACCCGTATTCGCACCGACAC	-2.1 ± 0.29	-1.99 ± 0.04
ACATTTGTTGATACAACCATAAAATGATAATTACACCCATAAAAACTTAATTATCACACCCATAAATTGATATTGCCTCTGATCATAGTCAGACCAACATTGCTACGACCCGTATTCGCACCGACAC	-0.52 ± 0.069	-0.679 ± 0.12
ACATTTGTTGATACAACCATAAAATGATAATTACACCCATAAAAAGATAATTATCACACCCATAAATTGATATTGCCTCTGATCATAGTCAGACCAACATTGCTACGACCCGTATTCGCACCGACAC	-1.08 ± 0.96	-0.162 ± 0.011
ACATTTGTTGATACAACCATAAAATGATAATTACACCCATAAAGGGATAATTATCACACCCATAAATTGATATTGCCTCTGATCATAGTCAGACCAACATTGCTACGACCCGTATTCGCACCGACAC	-0.969 ± 0.58	-0.447 ± 0.064
ACATTTGTTGATACAACCATAAAATGATAATTACACCCATAAAGGTCGCCGGCGACACAAACGCCCGGTCGCGGTAAGAGGATCATAGTCAGACCAACATTGCTACGACCCGTATTCGCACCGACAC	0.613 ± 0.011	-2.2 ± 0.37
ACATTTGTTGATACAACCATAAAATGATAATTACACCCATAAAGGTCTAATTATCACACCCATAAATTGATATTGCCTCTGATCATAGTCAGACCAACATTGCTACGACCCGTATTCGCACCGACAC	-1.72 ± 0.31	-1.77 ± 0.13

Sequence	relative integration efficiency (log2) [1]	relative integration efficiency (log2) [2]
ACATTTGTTGATACAACCATAAAATGATAATTACACCCATAAATACATAATTATCACACCCATAAATTGATATTGCCTCTGATCATAGTCAGACCAACATTGCTACGACCCGTATTCGCACCGACAC	-0.737 ± 0.026	-0.763 ± 0.18
ACATTTGTTGATACAACCATAAAATGATAATTACACCCATAAATACTAAATTATCACACCCATAAATTGATATTGCCTCTGATCATAGTCAGACCAACATTGCTACGACCCGTATTCGCACCGACAC	-1.26 ± 0.24	-1.56 ± 0.23
ACATTTGTTGATACAACCATAAAATGATAATTACACCCATAAATCTGAAATTATCACACCCATAAATTGATATTGCCTCTGATCATAGTCAGACCAACATTGCTACGACCCGTATTCGCACCGACAC	-1.08 ± 0.29	-0.888 ± 0.057
ACATTTGTTGATACAACCATAAAATGATAATTACACCCATAAATGGATAATTATCACCCCCAATTTAACTATAACGCTCTGATCATAGTCAGACCAACATTGCTACGACCCGTATTCGCACCGACAC	1.64 ± 0.048	-1.3 ± 0.18
ACATTTGTTGATACAACCATAAAATGATAATTACACCCATAAATGGATCATTATCACACCCAATTTAACTATAACGCTCTGATCATAGTCAGACCAACATTGCTACGACCCGTATTCGCACCGACAC	1.07 ± 0.2	-1.63 ± 0.33
ACATTTGTTGATACAACCATAAAATGATAATTACACCCATAAATGGATCATTATCACCCCCAATTTAACTATAACGCTCTGATCATAGTCAGACCAACATTGCTACGACCCGTATTCGCACCGACAC	1.15 ± 0.28	-1.44 ± 0.18
ACATTTGTTGATACAACCATAAAATGATAATTACACCCATAAATGGATTATTATCACACCCAATTTAACTATAACGCTCTGATCATAGTCAGACCAACATTGCTACGACCCGTATTCGCACCGACAC	0.865 ± 0.44	-1.59 ± 0.23
ACATTTGTTGATACAACCATAAAATGATAATTACACCCATAAATGTATAATTATCACACCCATAAATTGATATTGCCTCTGATCATAGTCAGACCAACATTGCTACGACCCGTATTCGCACCGACAC	-1.04 ± 0.38	-0.553 ± 0.026
ACATTTGTTGATACAACCATAAAATGATAATTACACCCATAAATGTCGAATTATCACACCCATAAATTGATATTGCCTCTGATCATAGTCAGACCAACATTGCTACGACCCGTATTCGCACCGACAC	-2.54 ± 0.58	-1.83 ± 0.081
ACATTTGTTGATACAACCATAAAATGATAATTACACCCATAAATGTCGCCGGCGACACAAACGCCCGGTCGCGGTAAGAGGATCATAGTCAGACCAACATTGCTACGACCCGTATTCGCACCGACAC	1 ± 0.17	-1.73 ± 0.3
ACATTTGTTGATACAACCATAAAATGATAATTACACCCATAAATTCATAATTATCACCCCCAATTTAACTATAACGCTCTGATCATAGTCAGACCAACATTGCTACGACCCGTATTCGCACCGACAC	1.06 ± 0.079	-1.95 ± 0.33
ACATTTGTTGATACAACCATAAAATGATAATTACACCCATAAATTCATCATTATCACACCCAATTTAACTATAACGCTCTGATCATAGTCAGACCAACATTGCTACGACCCGTATTCGCACCGACAC	1.42 ± 0.023	-2.36 ± 0.48
ACATTTGTTGATACAACCATAAAATGATAATTACACCCATAAATTCATCATTATCACCCCCAATTTAACTATAACGCTCTGATCATAGTCAGACCAACATTGCTACGACCCGTATTCGCACCGACAC	1.45 ± 0.16	-1.8 ± 0.25
ACATTTGTTGATACAACCATAAAATGATAATTACACCCATAAATTCATTATTATCACACCCAATTTAACTATAACGCTCTGATCATAGTCAGACCAACATTGCTACGACCCGTATTCGCACCGACAC	0.845 ± 0.28	-2.74 ± 0.49
ACATTTGTTGATACAACCATAAAATGATAATTACACCCATAAATTCTATATTATCACACCCATAAATTGATATTGCCTCTGATCATAGTCAGACCAACATTGCTACGACCCGTATTCGCACCGACAC	-0.688 ± 0.11	-2.002 ± 0.013
ACATTTGTTGATACAACCATAAAATGATAATTACACCCATAAATTCTTAATTATCACACCCATAAATTGATATTGCCTCTGATCATAGTCAGACCAACATTGCTACGACCCGTATTCGCACCGACAC	-1.33 ± 0.28	-1.43 ± 0.18
